Data on one substance can be found in US8937048B2, “Anti-angiogenic compounds” (Covx Technologies Ireland, Limited, priority 2008, dated 2015).

Data set [1] in a line: Mouse half-life (T 1/2) and screening half-life of Ang2 binding compounds. It is filed as in vivo, Swiss Webster mice. As for the experimental part: For “screening” T ½, test compounds were intravenously administered into male Swiss Webster mice. Blood samples were taken from 4 mice per time point via retroorbital sinus bleed at the following time points: 0.08, 5, and 32 hours. Blood level of test compounds were determined by ELISA. The data were reported as the percentage of test compounds at 32 hours versus 5 min. Normal T ½ was calculated in a similar fashion, after undergoing additional data analysis using WinNonlin version 4.1 (Pharsight Corporation). The data was fit to a model based upon the shape of the curve (i.e. a bi-exponential decline will be fit to a two compartment model, etc.) The criteria for best fit (i.e. lowest % CV) was based on iterative re-weighted least squares.

Data set [2] addresses T1, human angiopoietin-2 protein (Homo sapiens, UniProt O15123).
T1 construct: purchased R&D Systems
T1 sequence (O15123 19-496): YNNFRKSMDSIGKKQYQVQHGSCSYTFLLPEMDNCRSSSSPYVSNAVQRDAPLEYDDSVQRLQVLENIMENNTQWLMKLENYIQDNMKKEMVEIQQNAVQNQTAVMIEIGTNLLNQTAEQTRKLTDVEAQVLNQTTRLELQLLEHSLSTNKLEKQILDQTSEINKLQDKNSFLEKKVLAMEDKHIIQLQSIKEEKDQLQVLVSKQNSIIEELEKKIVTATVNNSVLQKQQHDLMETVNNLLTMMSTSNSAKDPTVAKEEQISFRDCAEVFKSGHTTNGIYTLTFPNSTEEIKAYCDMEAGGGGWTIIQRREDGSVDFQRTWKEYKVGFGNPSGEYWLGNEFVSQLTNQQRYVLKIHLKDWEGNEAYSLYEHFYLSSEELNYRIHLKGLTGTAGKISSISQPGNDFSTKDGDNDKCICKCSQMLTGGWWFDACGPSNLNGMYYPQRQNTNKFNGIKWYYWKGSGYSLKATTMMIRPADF
As to the kind of experiment: Ang2 reverse competition ELISA (Tie-2-Fc coated). To be noted: Table 5, column T; read-out: Ang-2 T IC50. It counts as binding. The method, then: Plates were washed three times with washing buffer (0.1% Tween 20, PBS, pH 7.4) and blocked with Superblock, 150 μl/well at RT for 1 hour. Plates were washed three times. […] Plates were washed 3 times, and 50 W of streptavidin HRP (1:200 dilution in Superblock) was added at RT for 20 minutes. […] OD450 nm with a correction wavelength of 540 nm was measured.
(In general: An ELISA detects its analyte on a solid surface through an enzyme-linked reagent.)

Data set [3] concerns the target T1, human angiopoietin-2 protein. The data set can be described thus: Ang2 competitive ELISA (Ang-2 coated, Tie-2-Fc competition). It is filed as binding. The following applies: Table 5, column P. The method, then: The ability of Ang2 binding compounds to interact with Ang2 was measured by competition with Tie-2. These tests were described in US2008166364 (and also in PCT/IE2007/000110), whose contents are herein incorporated by reference in their entirety. In particular, those portions of PCT/IE2007/000110 and US2008166364 detailing the advantages and disadvantages of various Ang2-binding peptides, and the advantages and disadvantages of covalently linking certain Ang2-binding peptides to catalytic antibodies (and those portions specifically relating to linking to h38C2), as well as the advantages and disadvantages of using specific residues of the respective Ang2-specific peptide as the linking residue (in this context, linking residue meaning the residue covalently linked to the linker (for example as used herein in Example 4)). For competitive ELISA, human angiopoietin-2 protein and Tie-2-Fc (R&D Systems) were reconstituted without carrier protein. Mouse anti-human Tie-2 (Pharmingen) was used as the primary antibody and goat anti-mouse-IgG 1-HRP (Pierce) was used as the secondary antibody. TMB substrate from Pierce was used.
High-binding half-well plates were coated with Ang-2 (100 ng/well) in 50 W PBS and incubated at 4° C. overnight. […] Color development was monitored and stopped with 25 μl of 2 M H2SO4. OD450 nm with a correction wavelength of 540 nm was measured.

As a reminder, the IC50 is the concentration that gives 50% inhibition. Take “Q(Kac)Y QPL DEL DK(4P)T LYD QFM LQQ G [Compound 4024]”: the “T ½ hours” value in data set [1] (Table 5, half-life (value not in parentheses)) was found to be 104 h. Moreover, the “T ½ (Sc) hours, screening half life” value in data set [1] (Table 5, screening half life (in parentheses), shorter test period) is recorded as “(27) hours”. The figures for the IC50 in data set [2] and in data set [3] were 207 nM and 17.4 nM, respectively.
